# Source: US20250076311A1 (Chugai, published 2025)
# T1: human FcγRIIb constitutively expressed on MDCK cells (human, UniProt P31994 43-310)
# T1 sequence (looked up): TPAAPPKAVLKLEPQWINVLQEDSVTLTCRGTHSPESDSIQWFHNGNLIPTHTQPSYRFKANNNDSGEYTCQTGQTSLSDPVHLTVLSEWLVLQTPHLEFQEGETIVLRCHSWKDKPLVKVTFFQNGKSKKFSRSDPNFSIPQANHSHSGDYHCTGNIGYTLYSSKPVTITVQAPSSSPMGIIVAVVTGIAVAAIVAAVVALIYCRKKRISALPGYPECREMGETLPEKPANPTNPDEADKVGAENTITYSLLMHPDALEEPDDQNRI
# T2: soluble mouse FcγRII, His-tagged (mouse, UniProt P08101 30-210, limits assumed)
# T2 construct: Captured on the chip through an anti-His antibody
# T2 sequence (looked up): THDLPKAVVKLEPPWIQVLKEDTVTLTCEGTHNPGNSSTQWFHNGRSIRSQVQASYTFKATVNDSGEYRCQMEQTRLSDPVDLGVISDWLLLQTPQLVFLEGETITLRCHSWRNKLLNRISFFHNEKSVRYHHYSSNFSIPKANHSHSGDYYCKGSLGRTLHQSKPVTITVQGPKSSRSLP
# B1: MS1032LO06-P1375m (antibody, human IgG1, kappa, name in EU numbering)
# heavy: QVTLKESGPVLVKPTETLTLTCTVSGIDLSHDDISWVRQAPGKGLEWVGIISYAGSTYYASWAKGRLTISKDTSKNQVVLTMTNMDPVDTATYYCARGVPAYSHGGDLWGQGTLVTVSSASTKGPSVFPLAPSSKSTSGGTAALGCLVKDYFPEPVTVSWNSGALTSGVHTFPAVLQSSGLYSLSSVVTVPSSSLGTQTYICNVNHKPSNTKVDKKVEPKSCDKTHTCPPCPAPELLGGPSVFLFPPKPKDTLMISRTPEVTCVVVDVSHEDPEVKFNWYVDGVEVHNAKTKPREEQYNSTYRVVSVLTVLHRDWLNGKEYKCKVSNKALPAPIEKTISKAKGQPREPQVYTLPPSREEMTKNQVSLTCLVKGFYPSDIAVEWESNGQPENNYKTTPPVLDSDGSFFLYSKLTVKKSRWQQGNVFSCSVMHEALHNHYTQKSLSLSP
# light: DIVMTQSPATLSLSPGERATLSCTSSQSVYHANWLSWFQQKPGQPPKLLIYWASTLAYGVPSRFSGSGSGTDFTLTISSLQPEDAATYYCAGGYGGGRYAFGQGTKVEIKRTVAAPSVFIFPPSDEQLKSGTASVVCLLNNFYPREAKVQWKVDNALQSGNSQESVTEQDSKDSTYSLSSTLTLSKADYEKHKVYACEVTHQGLSSPVTKSFNRGEC
# notes: also called M103205H795-P1375m; copies: 2 + 2
# B2: M103205H795-P1529m/M103202L889-SK1 (antibody, human IgG1, kappa, name in EU numbering)
# heavy: not shown
# light: B1 light
# notes: copies: 2 + 2
# B3: M103205H795-P1501m/M103202L889-SK1 (antibody, human IgG1, kappa, name in EU numbering)
# heavy: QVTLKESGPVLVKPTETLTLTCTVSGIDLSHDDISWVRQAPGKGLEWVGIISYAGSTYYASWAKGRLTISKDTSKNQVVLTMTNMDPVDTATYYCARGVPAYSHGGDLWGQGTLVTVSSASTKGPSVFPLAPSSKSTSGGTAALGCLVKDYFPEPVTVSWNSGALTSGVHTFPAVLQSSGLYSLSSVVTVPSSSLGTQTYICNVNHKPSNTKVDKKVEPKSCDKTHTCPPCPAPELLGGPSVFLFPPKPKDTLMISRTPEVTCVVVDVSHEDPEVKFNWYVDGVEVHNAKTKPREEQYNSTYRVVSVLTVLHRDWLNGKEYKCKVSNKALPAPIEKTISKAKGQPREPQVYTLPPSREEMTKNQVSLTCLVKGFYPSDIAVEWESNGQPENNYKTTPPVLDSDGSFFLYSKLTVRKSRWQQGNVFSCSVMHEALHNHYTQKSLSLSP
# light: B1 light
# notes: copies: 2 + 2
# B4: M103205H795-P1495m/M103202L889-SK1 (antibody, human IgG1, kappa, name in EU numbering)
# heavy: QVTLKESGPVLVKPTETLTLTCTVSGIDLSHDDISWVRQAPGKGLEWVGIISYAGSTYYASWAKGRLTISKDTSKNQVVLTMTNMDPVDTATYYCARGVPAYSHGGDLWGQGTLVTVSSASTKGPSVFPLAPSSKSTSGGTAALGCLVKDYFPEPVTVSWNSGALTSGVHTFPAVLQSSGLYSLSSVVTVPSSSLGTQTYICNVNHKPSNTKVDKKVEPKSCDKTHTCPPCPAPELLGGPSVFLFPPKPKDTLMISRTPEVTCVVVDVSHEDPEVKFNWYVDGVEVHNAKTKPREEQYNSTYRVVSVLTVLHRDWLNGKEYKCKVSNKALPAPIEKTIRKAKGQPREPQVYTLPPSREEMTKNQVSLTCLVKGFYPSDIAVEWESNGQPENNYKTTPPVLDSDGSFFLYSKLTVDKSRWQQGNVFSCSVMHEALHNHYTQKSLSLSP
# light: B1 light
# notes: copies: 2 + 2
# B5: M103205H795-P1492m/M103202L889-SK1 (antibody, human IgG1, kappa, name in EU numbering)
# heavy: not shown
# light: B1 light
# notes: copies: 2 + 2
# B6: M103205H795-P1491m/M103202L889-SK1 (antibody, human IgG1, kappa, name in EU numbering)
# heavy: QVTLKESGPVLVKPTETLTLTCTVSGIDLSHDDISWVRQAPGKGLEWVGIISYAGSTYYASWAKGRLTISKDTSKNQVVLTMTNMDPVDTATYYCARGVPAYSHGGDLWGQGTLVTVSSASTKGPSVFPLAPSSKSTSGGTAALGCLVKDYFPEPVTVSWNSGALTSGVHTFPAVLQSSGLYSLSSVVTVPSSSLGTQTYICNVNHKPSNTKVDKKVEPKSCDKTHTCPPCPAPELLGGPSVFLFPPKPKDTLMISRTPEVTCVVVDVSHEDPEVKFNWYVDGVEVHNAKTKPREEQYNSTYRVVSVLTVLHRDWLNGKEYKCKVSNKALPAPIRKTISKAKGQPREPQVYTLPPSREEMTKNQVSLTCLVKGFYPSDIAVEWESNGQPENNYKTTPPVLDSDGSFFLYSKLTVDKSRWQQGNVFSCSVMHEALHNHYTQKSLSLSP
# light: B1 light
# notes: copies: 2 + 2
# B7: M103205H795-P1484m/M103202L889-SK1 (antibody, human IgG1, kappa, name in EU numbering)
# heavy: not shown
# light: B1 light
# notes: copies: 2 + 2
# B8: M103205H795-P1486m/M103202L889-SK1 (antibody, human IgG1, kappa, name in EU numbering)
# heavy: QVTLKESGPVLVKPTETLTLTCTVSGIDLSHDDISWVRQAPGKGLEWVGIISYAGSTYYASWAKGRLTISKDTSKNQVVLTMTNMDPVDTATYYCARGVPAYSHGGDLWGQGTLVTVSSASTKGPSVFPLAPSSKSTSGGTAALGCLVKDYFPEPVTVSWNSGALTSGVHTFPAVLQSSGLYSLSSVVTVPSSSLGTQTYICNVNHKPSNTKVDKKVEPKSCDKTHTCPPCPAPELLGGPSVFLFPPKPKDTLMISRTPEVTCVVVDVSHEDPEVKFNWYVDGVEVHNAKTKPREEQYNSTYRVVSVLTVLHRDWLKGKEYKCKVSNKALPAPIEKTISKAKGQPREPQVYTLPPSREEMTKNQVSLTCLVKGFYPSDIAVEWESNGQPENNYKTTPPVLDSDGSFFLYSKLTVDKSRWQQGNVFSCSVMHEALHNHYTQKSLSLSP
# light: B1 light
# notes: copies: 2 + 2
# B9: M103205H795-P1535m/M103202L889-SK1 (antibody, human IgG1, kappa, name in EU numbering)
# heavy: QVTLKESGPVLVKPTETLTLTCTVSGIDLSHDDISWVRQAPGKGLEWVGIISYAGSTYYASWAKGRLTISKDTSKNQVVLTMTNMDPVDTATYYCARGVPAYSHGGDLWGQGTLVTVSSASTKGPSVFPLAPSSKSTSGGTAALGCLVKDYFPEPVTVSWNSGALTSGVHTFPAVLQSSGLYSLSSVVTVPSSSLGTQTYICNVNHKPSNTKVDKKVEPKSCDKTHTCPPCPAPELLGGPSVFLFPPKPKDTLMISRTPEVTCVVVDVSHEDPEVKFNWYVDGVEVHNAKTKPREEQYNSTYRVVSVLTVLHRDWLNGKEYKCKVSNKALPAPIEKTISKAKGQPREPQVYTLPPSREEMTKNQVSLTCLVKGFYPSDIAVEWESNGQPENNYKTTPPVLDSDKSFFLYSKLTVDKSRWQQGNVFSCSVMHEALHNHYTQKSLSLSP
# light: B1 light
# notes: copies: 2 + 2
# B10: M103205H795-P1537m/M103202L889-SK1 (antibody, human IgG1, kappa, name in EU numbering)
# heavy: not shown
# light: B1 light
# notes: copies: 2 + 2
# B11: M103205H795-P1533m/M103202L889-SK1 (antibody, human IgG1, kappa, name in EU numbering)
# heavy: not shown
# light: B1 light
# notes: copies: 2 + 2
# B12: M103205H795-P1523m/M103202L889-SK1 (antibody, human IgG1, kappa, name in EU numbering)
# heavy: not shown
# light: B1 light
# notes: copies: 2 + 2
# B13: M103205H795-P1485m/M103202L889-SK1 (antibody, human IgG1, kappa, name in EU numbering)
# heavy: not shown
# light: B1 light
# notes: copies: 2 + 2
# B14: M103205H795-P1497m/M103202L889-SK1 (antibody, human IgG1, kappa, name in EU numbering)
# heavy: not shown
# light: B1 light
# B15: M103205H795-P1500m/M103202L889-SK1 (antibody, human IgG1, kappa, name in EU numbering)
# heavy: not shown
# light: B1 light
# B16: M103205H795-P1487m/M103202L889-SK1 (antibody, human IgG1, kappa, name in EU numbering)
# heavy: not shown
# light: B1 light
# notes: copies: 2 + 2
# B17: M103205H795-P1527m/M103202L889-SK1 (antibody, human IgG1, kappa, name in EU numbering)
# heavy: not shown
# light: B1 light
# notes: copies: 2 + 2
# B18: M103205H795-P1488m/M103202L889-SK1 (antibody, human IgG1, kappa, name in EU numbering)
# heavy: not shown
# light: B1 light
# notes: copies: 2 + 2
# B19: M103205H795-P1498m/M103202L889-SK1 (antibody, human IgG1, kappa, name in EU numbering)
# heavy: not shown
# light: B1 light
# B20: M103205H795-P1526m/M103202L889-SK1 (antibody, human IgG1, kappa, name in EU numbering)
# heavy: not shown
# light: B1 light
# notes: copies: 2 + 2
# B21: M103205H795-P1489m/M103202L889-SK1 (antibody, human IgG1, kappa, name in EU numbering)
# heavy: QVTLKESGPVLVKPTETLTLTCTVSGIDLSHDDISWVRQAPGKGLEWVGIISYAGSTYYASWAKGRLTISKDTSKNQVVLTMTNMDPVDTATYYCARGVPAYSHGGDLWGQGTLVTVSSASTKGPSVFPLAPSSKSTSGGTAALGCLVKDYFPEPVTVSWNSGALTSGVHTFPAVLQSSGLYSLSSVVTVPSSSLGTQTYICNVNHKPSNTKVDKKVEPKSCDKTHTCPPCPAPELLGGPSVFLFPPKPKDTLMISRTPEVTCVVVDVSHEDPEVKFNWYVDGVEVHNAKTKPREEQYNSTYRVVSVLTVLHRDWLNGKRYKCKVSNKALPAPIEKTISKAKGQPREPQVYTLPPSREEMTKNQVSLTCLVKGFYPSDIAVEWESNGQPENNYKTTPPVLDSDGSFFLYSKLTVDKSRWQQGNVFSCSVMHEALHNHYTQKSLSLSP
# light: B1 light
# notes: copies: 2 + 2
# B22: M103205H795-P1534m/M103202L889-SK1 (antibody, human IgG1, kappa, name in EU numbering)
# heavy: not shown
# light: B1 light
# notes: copies: 2 + 2
# B23: M103205H795-P1528m/M103202L889-SK1 (antibody, human IgG1, kappa, name in EU numbering)
# heavy: not shown
# light: B1 light
# notes: copies: 2 + 2
# B24: M103205H795-P1490m/M103202L889-SK1 (antibody, human IgG1, kappa, name in EU numbering)
# heavy: not shown
# light: B1 light
# notes: copies: 2 + 2
# B25: M103205H795-P1493m/M103202L889-SK1 (antibody, human IgG1, kappa, name in EU numbering)
# heavy: not shown
# light: B1 light
# notes: copies: 2 + 2
# B26: M103205H795-P1524m/M103202L889-SK1 (antibody, human IgG1, kappa, name in EU numbering)
# heavy: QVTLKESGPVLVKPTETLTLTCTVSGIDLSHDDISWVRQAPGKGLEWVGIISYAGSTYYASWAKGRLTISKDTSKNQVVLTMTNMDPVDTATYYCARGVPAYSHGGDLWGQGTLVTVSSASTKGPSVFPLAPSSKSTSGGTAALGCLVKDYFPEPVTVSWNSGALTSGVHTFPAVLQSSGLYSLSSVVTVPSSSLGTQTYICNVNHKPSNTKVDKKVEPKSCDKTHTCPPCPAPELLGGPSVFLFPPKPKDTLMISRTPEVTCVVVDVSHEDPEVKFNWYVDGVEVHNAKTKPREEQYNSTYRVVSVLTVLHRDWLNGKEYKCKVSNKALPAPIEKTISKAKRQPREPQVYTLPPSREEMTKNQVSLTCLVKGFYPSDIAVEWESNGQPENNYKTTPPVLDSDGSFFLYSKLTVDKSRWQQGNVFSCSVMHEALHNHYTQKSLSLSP
# light: B1 light
# B27: M103205H795-P1525m/M103202L889-SK1 (antibody, human IgG1, kappa, name in EU numbering)
# heavy: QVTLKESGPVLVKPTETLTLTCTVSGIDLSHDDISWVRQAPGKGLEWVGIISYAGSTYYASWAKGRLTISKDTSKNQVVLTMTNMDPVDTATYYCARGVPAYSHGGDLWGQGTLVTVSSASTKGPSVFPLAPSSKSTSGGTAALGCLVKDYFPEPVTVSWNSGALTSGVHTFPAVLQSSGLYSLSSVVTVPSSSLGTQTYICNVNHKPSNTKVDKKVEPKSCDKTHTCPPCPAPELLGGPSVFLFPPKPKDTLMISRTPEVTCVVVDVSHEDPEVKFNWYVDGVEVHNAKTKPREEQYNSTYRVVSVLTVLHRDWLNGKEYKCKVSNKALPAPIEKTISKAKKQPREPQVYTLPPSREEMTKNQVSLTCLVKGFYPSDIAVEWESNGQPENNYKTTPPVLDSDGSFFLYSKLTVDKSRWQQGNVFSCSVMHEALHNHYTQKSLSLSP
# light: B1 light
# B28: M103205H795-P1530m/M103202L889-SK1 (antibody, human IgG1, kappa, name in EU numbering)
# heavy: not shown
# light: B1 light
# notes: copies: 2 + 2
# B29: M103205H795-P1532m/M103202L889-SK1 (antibody, human IgG1, kappa, name in EU numbering)
# heavy: not shown
# light: B1 light
# notes: copies: 2 + 2
# B30: M103205H795-P1536m/M103202L889-SK1 (antibody, human IgG1, kappa, name in EU numbering)
# heavy: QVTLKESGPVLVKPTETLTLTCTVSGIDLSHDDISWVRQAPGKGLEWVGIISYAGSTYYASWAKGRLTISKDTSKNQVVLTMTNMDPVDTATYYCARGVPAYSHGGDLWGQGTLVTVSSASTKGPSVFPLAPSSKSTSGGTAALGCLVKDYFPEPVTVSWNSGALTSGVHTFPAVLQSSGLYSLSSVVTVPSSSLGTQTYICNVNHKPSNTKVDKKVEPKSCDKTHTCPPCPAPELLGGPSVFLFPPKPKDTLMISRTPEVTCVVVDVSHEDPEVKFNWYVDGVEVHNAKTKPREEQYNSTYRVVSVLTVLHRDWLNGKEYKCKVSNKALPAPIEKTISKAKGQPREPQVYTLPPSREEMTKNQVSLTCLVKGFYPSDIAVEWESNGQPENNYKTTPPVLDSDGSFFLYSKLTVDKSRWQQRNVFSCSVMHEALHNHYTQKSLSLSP
# light: B1 light
# notes: copies: 2 + 2
# B31: M103205H795-P1538m/M103202L889-SK1 (antibody, human IgG1, kappa, name in EU numbering)
# heavy: not shown
# light: B1 light
# notes: copies: 2 + 2
# B32: M103205H795-P1496m/M103202L889-SK1 (antibody, human IgG1, kappa, name in EU numbering)
# heavy: not shown
# light: B1 light
# notes: copies: 2 + 2
# B33: M103205H795-P1522m/M103202L889-SK1 (antibody, human IgG1, kappa, name in EU numbering)
# heavy: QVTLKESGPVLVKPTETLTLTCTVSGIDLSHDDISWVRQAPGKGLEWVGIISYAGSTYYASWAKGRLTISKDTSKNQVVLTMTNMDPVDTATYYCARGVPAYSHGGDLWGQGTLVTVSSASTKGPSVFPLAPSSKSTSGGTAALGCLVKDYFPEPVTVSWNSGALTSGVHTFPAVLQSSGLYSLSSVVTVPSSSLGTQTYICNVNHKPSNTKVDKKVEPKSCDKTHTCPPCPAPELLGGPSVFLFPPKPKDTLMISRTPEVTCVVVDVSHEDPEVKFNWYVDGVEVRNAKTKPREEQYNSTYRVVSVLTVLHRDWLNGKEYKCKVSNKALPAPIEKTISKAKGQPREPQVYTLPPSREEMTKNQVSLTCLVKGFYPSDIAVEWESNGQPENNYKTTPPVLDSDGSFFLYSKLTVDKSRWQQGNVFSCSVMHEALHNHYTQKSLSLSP
# light: B1 light
# notes: copies: 2 + 2
# B34: M103205H795-P1494m/M103202L889-SK1 (antibody, human IgG1, kappa, name in EU numbering)
# heavy: not shown
# light: B1 light
# notes: copies: 2 + 2
# B35: M103205H795-P1531m/M103202L889-SK1 (antibody, human IgG1, kappa, name in EU numbering)
# heavy: not shown
# light: B1 light
# notes: copies: 2 + 2
# Target: T1, human FcγRIIb constitutively expressed …
# Test: cell-based or functional assay
row,celluar uptake (labelled human latent myostatin taken up as antigen-antibody complex),Binder
1,3.43 relative to SG1 = 1.00,B1
2,2.86 relative to SG1 = 1.00,B2
3,2.4 relative to SG1 = 1.00,B3
4,1.76 relative to SG1 = 1.00,B4
5,1.13 relative to SG1 = 1.00,B5
6,1.37 relative to SG1 = 1.00,B6
7,0 relative to SG1 = 1.00,B7
8,1.52 relative to SG1 = 1.00,B8
9,2.49 relative to SG1 = 1.00,B9
10,2.77 relative to SG1 = 1.00,B10
11,3.52 relative to SG1 = 1.00,B11
12,1.91 relative to SG1 = 1.00,B12
13,1.88 relative to SG1 = 1.00,B13
14,1.38 relative to SG1 = 1.00,B14
15,1.82 relative to SG1 = 1.00,B15
16,1.23 relative to SG1 = 1.00,B16
17,0.92 relative to SG1 = 1.00,B17
18,1.45 relative to SG1 = 1.00,B18

row,celluar uptake (labelled human latent myostatin taken up as antigen-antibody complex),Binder
1,1.56 relative to SG1 = 1.00,B19
2,1.2 relative to SG1 = 1.00,B20
3,1.68 relative to SG1 = 1.00,B21
4,3.12 relative to SG1 = 1.00,B22
5,3.02 relative to SG1 = 1.00,B23
6,1.33 relative to SG1 = 1.00,B24
7,0.99 relative to SG1 = 1.00,B25
8,3.66 relative to SG1 = 1.00,B26
9,3.55 relative to SG1 = 1.00,B27
10,3.12 relative to SG1 = 1.00,B28
11,4.16 relative to SG1 = 1.00,B29
12,2.05 relative to SG1 = 1.00,B30
13,1.84 relative to SG1 = 1.00,B31
14,1.69 relative to SG1 = 1.00,B32
15,2.13 relative to SG1 = 1.00,B33
16,1.12 relative to SG1 = 1.00,B34
17,2.35 relative to SG1 = 1.00,B35

# Target: T2, soluble mouse FcγRII, His-tagged
# Test: SPR, mouse FcγRII captured via His-tag, antigen-antibody complex injected, pH 7.4, 25 C
# Method: Regarding the produced Fc region variant-containing antibodies, binding assays between soluble mouse FcγRII and antigen-antibody complexes were performed using BIACORE® T200 (GE Healthcare). Soluble mouse FcγRII was produced in the form of a His-tagged molecule by a method known to those skilled in the art. An appropriate amount of an anti-His antibody was fixed onto Sensor chip CM5 (GE Healthcare) by the amine coupling method using a His capture kit (GE Healthcare) to capture mouse FcγRII. Next, an antibody-antigen complex and a running buffer (as a reference solution) were injected, and interaction was allowed to take place with the mouse FcγRII captured onto the sensor chip. 20 mM N-(2-Acetamido)-2-aminoethanesulfonic acid, 150 mM NaCl, 1.2 mM CaCl₂), and 0.05% (w/v) TWEEN® 20 at pH7.4 was used as the running buffer, and the respective buffer was also used to dilute the soluble mouse FcγRII. To regenerate the sensor chip, 10 mM glycine-HCl at pH1.5 was used. All measurements were carried out at 25° C. […] To calculate the parameters, the BIACORE® T100 Evaluation Software (GE Healthcare) was used.
row,"biacore IC binding (relative, SG1 = 1.00)",Binder
1,1.21 relative to SG1,B1
2,1.08 relative to SG1,B2
3,1.82 relative to SG1,B3
4,1.3 relative to SG1,B4
5,0.88 relative to SG1,B5
6,1.05 relative to SG1,B6
7,1.33 relative to SG1,B7
8,1.2 relative to SG1,B8
9,1.11 relative to SG1,B9
10,1.32 relative to SG1,B10
11,1.18 relative to SG1,B11
12,1.19 relative to SG1,B12
13,1.29 relative to SG1,B13
14,1.49 relative to SG1,B14
15,1.32 relative to SG1,B15
16,1.46 relative to SG1,B16
17,0.98 relative to SG1,B17
18,1.43 relative to SG1,B18

row,"biacore IC binding (relative, SG1 = 1.00)",Binder
1,1.38 relative to SG1,B19
2,1.04 relative to SG1,B20
3,1.24 relative to SG1,B21
4,1.12 relative to SG1,B22
5,1.12 relative to SG1,B23
6,1.28 relative to SG1,B24
7,1.1 relative to SG1,B25
8,1.4 relative to SG1,B26
9,1.31 relative to SG1,B27
10,1.09 relative to SG1,B28
11,1.23 relative to SG1,B29
12,1.16 relative to SG1,B30
13,1.11 relative to SG1,B31
14,1.28 relative to SG1,B32
15,1.24 relative to SG1,B33
16,1.14 relative to SG1,B34
17,1.01 relative to SG1,B35
